One protein from publication PMC9049628 can be followed below.

Substrate in this series: NCCCC[C@H](N)C(=O)O
As to the kind of experiment: purified protein. The following applies: 5 mM acetyl-CoA, 50 mM Tris-HCl pH 10.0, 40 °C, 0.65 mM DTNB.

B1: ShKAT (Salinicoccus halodurans) (protein)
chain: MWQTKKFNELSLSEIEQIFRLRQSIFIIEQQSYFADIDGKDTEAIHIFNKENNIIWAYCRILIYDEKVILGRVTVHSDKRGNGNGRELLNTALKYLKENYPDKFVQIVAMSYLKDFYKSYGFKSISEVYIMDDHPHEDMILKH
As to B1, the Km was determined as 1890 µM.
